The values below come from US20190194338A1 (Seagen, published 2019).

The target in assay [1] is T1, FcγRIIIa (hCD16) on transfected CHO cells (human, UniProt P08637 17-254).
T1 construct: whole, on cells; Also expressed on Jurkat effector cells in the signalling assay; also called human FcRIIIa
The assay can be described thus: competition with labelled h00 on CHO cells with FcγRIIIa.

In assay [2] the target is T2, human BCMA expressed on cells (NCI-H929, U266, JJN3, 293:BCMA) (human, UniProt Q02223 1-184).
T2 construct: Endogenous BCMA on myeloma lines or full-length BCMA clone in HEK 293 cells; also called B-cell maturation antigen; CD269
T2 sequence: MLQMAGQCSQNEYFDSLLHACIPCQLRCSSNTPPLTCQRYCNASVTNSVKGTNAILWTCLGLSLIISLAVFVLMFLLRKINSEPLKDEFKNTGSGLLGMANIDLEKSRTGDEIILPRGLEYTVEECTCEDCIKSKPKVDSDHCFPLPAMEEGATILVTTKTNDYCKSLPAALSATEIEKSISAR
The assay can be described thus: binding to U266 cells.

Assay [3] addresses T2, human BCMA expressed on cells …. The assay can be described thus: binding to JJN3 cells.

T1 sequence (P08637 17-254): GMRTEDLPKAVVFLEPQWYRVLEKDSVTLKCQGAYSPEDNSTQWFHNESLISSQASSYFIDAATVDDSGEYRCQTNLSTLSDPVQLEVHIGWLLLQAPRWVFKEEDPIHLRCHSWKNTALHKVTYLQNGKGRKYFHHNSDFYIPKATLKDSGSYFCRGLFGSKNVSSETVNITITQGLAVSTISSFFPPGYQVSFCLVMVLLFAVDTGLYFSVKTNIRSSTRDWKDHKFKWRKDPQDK

B1: cSG16.17 wild-type (antibody)
heavy: not shown
light: DIQMTQSPASLSASLGETVSIECLASEDISDDLAWYQQKSGKSPQVLVYTTSRLQDGVPSRFSGSGSGTRFSLKIIVMQPEDEADYFCQQTYKFPPTFGAGTRLDLKR
notes: domain: wild-type human IgG1 heavy chain constant domains; Rat VH and VL fused to human IgG1 and kappa constants; also called chimeric SG16.17; cSG16.17 G1 WT; not shown: human kappa light chain constant domain
As a reminder, the Kd is the equilibrium constant for the complex coming apart. With B1, the binding result in assay [1] is on record as “binds”. In addition, the Kd in assay [2] is about 10 nM; in assay [3], about 15 nM.

B2: cSG16.17 mutant (antibody, name in EU numbering)
heavy: QVNLLQSRAALVKPGASVKLSCEASGYTFTDYYIHWVKQSHGKSLEWIGYINPNSGYTKYNENFKTKATMTADKSTNTAYVELSRLTSEDSATYFCTRYMWERVTGFFDFWGPGTKVTVSSASTKGPSVFPLAPSSKSTSGGTAALGCLVKDYFPEPVTVSWNSGALTSGVHTFPAVLQSSGLYSLSSVVTVPSSSLGTQTYICNVNHKPSNTKVDKKVEPKSCDKTHTCPPCPAPELLGGPDVFLFPPKPKDTLMISRTPEVTCVVVDVSHEDPEVKFNWYVDGVEVHNAKTKPREEQYNSTYRVVSVLTVLHQDWLNGKEYKCKVSNKALPLPEEKTISKAKGQPREPQVYTLPPSRDELTKNQVSLTCLVKGFYPSDIAVEWESNGQPENNYKTTPPVLDSDGSFFLYSKLTVDKSRWQQGNVFSCSVMHEALHNHYTQKSLSLSPGK
light: B1 light
notes: domain: human IgG1 heavy chain constant domains; Positions of the Fc mutations are EU numbers, not positions on the UniProt entry; also called cSG16.17 S239D:A330L:I332E; chimeric SG16.17 IgG1 S239D, A330L, I332E; not shown: human kappa light chain constant domain
On to B2, for which the binding result in assay [1] is “binds”.
